Laboratory results as given in patent publication US20250282871A1, “PHARMACEUTICAL COMBINATION AND USE THEREOF” (TIANJIN LIPOGEN TECHNOLOGY CO., LTD, priority 2021, published 2025).

System: colorectal carcinoma MC38
Assay: Example 7.2.1: MC38 subcutaneous xenograft, marketed PD-1 inhibitors and 2′,3′-cGAMP
Format: in vivo, mouse
Details: intratumor injection; PD-1 antibody 10 mg/kg, 2′,3′-cGAMP 1 mg/kg; every other day, 3 times
Protocol: Tumor cells were cultured and passaged, cells were collected at the logarithmic phase, and formulated into a concentration of (1.0×10^7) per milliliter of cell suspension with 0.1 ml (with a cell number of 1.0×10^6) being injected into the right flank of the mice, the tumor grew to a diameter of about 5 mm within about 10 days, and the model was successfully established, they were randomly divided into 8 groups with 8 mice per group.
Trend of changes in body weight and tumor volume of mice, survival rate of mice, and inhibitory rate of anatomical tumor weight.
Drug interaction coefficient: CDI(CI)=AB/A*B. AB is the ratio of the combination group of two drugs to the control group, as calculated based on the anatomical tumor weight. A or B is the ratio of single drug group to control group.
After successfully establishing a subcutaneous xenograft tumor model of colorectal carcinoma MC38 in mice, they were randomly grouped with 6-8 mice per group and administered once every two days, a total of 3 times.

B1: Camrelizumab: marketed PD-1 monoclonal antibody (antibody, chains of the INN, looked up, V domains shown)
VH: EVQLVESGGGLVQPGGSLRLSCAASGFTFSSYMMSWVRQAPGKGLEWVATISGGGANTYYPDSVKGRFTISRDNAKNSLYLQMNSLRAEDTAVYYCARQLYYFDYWGQGTTVTVSS
VL: DIQMTQSPSSLSASVGDRVTITCLASQTIGTWLTWYQQKPGKAPKLLIYTATSLADGVPSRFSGSGSGTDFTLTISSLQPEDFATYYCQQVYSIPWTFGGGTKVEIK
IRTW % (tumor weight inhibitory rate): 19.6% | Tumor Weight: 1.23 g

B2: Tislelizumab: marketed PD-1 monoclonal antibody (antibody, chains of the INN, looked up)
heavy: QVQLQESGPGLVKPSETLSLTCTVSGFSLTSYGVHWIRQPPGKGLEWIGVIYADGSTNYNPSLKSRVTISKDTSKNQVSLKLSSVTAADTAVYYCARAYGNYWYIDVWGQGTTVTVSSASTKGPSVFPLAPCSRSTSESTAALGCLVKDYFPEPVTVSWNSGALTSGVHTFPAVLQSSGLYSLSSVVTVPSSSLGTKTYTCNVDHKPSNTKVDKRVESKYGPPCPPCPAPPVAGGPSVFLFPPKPKDTLMISRTPEVTCVVVAVSQEDPEVQFNWYVDGVEVHNAKTKPREEQFNSTYRVVSVLTVVHQDWLNGKEYKCKVSNKGLPSSIEKTISKAKGQPREPQVYTLPPSQEEMTKNQVSLTCLVKGFYPSDIAVEWESNGQPENNYKTTPPVLDSDGSFFLYSKLTVDKSRWQEGNVFSCSVMHEALHNHYTQKSLSLSLG
light: DIVMTQSPDSLAVSLGERATINCKSSESVSNDVAWYQQKPGQPPKLLINYAFHRFTGVPDRFSGSGYGTDFTLTISSLQAEDVAVYYCHQAYSSPYTFGQGTKLEIKRTVAAPSVFIFPPSDEQLKSGTASVVCLLNNFYPREAKVQWKVDNALQSGNSQESVTEQDSKDSTYSLSSTLTLSKADYEKHKVYACEVTHQGLSSPVTKSFNRGEC
IRTW % (tumor weight inhibitory rate): 61.4% | Tumor Weight: 0.59 g
